From patent US11306156

Tests used:
[1] = molecular target: tissue factor (TF) antigen (UniProt P13726); assay: SPR; log ratio against wild-type D3H44 Fab; estimated value
[2] = molecular target: tissue factor (TF) antigen (UniProt P13726); assay: SPR (ProteOn XPR36): Fab captured via His tag on anti-penta-His, TF as analyte, 1:1 fit; estimated value, taken from the same Fab with another L chain tag
[3] = molecular target: tissue factor (TF) antigen (UniProt P13726); assay: SPR, Fab captured on anti-penta-His surface, TF as analyte, 1:1 fit; Fab batch C; against wild-type D3H44 Fab
[4] = molecular target: tissue factor (TF) antigen (UniProt P13726); assay: SPR, Fab captured on anti-penta-His surface, TF as analyte, 1:1 fit; Fab batch C
[5] = molecular target: tissue factor (TF) antigen (UniProt P13726); assay: SPR (ProteOn XPR36): Fab captured via His tag on anti-penta-His, TF as analyte, 1:1 fit
[6] = molecular target: tissue factor (TF) antigen (UniProt P13726); assay: SPR; log ratio against wild-type D3H44 Fab
[7] = molecular target: tissue factor (TF) antigen (UniProt P13726); assay: SPR, Fab captured on anti-penta-His, TF as analyte, 1:1 fit
[8] = molecular target: tissue factor (TF) antigen (UniProt P13726); assay: vs wild-type D3H44 Fab (KD 0.157 nM); SPR, Fab captured on anti-penta-His, TF as analyte
[9] = molecular target: tissue factor (TF) antigen (UniProt P13726); assay: SPR (ProteOn XPR36), Fab captured by His tag on anti-penta-His surface, TF injected as analyte; against wild-type D3H44 Fab
[10] = molecular target: tissue factor (TF) antigen (UniProt P13726); assay: SPR (ProteOn XPR36), Fab captured by His tag on anti-penta-His surface, TF injected as analyte, 1:1 fit
[11] = molecular target: tissue factor (TF) antigen (UniProt P13726); assay: SPR, against wild-type D3H44 Fab; batch C (+)
[12] = molecular target: tissue factor (TF) antigen (UniProt P13726); assay: SPR (ProteOn XPR36), Fab captured on anti-penta-His, TF injected, 1:1 fit; batch C (+)

Chain of tissue factor (TF) antigen (P13726 33-251 limits assumed): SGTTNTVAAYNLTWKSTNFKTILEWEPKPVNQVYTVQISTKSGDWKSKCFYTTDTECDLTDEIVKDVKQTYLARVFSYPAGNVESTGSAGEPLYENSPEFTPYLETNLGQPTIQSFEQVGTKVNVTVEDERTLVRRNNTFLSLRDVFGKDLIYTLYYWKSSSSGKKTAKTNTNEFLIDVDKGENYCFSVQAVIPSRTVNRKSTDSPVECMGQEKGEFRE

D3H44 Fab heterodimer, H L143E_K145T_Q179D / L Q124R_Q160K_T178R (H1L1 of LCCA set 9623)
Change in KD with respect to wild type (-(log(KD design) - log(KD wt))) [1]: 0.39
Kd [2]: 0.06 nM

D3H44 H1L1 Fab heterodimer of LCCA Set # 9901 (H1 S186R; L1 Q124E_T180E)
change in median KD compared to wild type, -(log(KD design)-log(KD wt)) [3]: 0.36
Kd [4]: 0.07 nM

D3H44 H1L1 Fab heterodimer of LCCA Set # 9831 (H1 S186K; L1 Q124E_Q160E_T180E)
change in median KD compared to wild type, -(log(KD design)-log(KD wt)) [3]: 0.09
Kd [4]: 0.13 nM

D3H44 H1L1 Fab heterodimer of LCCA Set # 9809 (H1 Q179R; L1 Q124E_T178E)
change in median KD compared to wild type, -(log(KD design)-log(KD wt)) [3]: 0.04
Kd [4]: 0.14 nM

D3H44 Fab heterodimer, H L143E_K145T_Q179E / L Q124R_T178R (H1L1 of LCCA sets 9679 and 9663)
Change in KD with respect to wild type (-(log(KD design) - log(KD wt))) [1]: -0.23
Kd [2]: 0.27 nM
Kd [5]: 0.27 nM
Change in KD with respect to wild type (-(log(KD design) - log(KD wt))) [6]: -0.23

D3H44 H1L1 Fab heterodimer of LCCA Set # 9644 (H1 L143E_K145T_Q179D_S188L; L1 Q124R_Q160K_T178R)
change in median KD compared to wild type, -(log(KD design)-log(KD wt)) [3]: 0.09
Kd [4]: 0.13 nM

H1L1 Fab heterodimer of LCCA set 10552 (D3H44 Fab, H1 L45P_L143E_K145T_H172R, L1 P44F_Q124R_Q160K_T178R)
Kd [7]: 0.29 nM
change in median KD compared to wild type, -(log(KD design)-log(KD wt)) [8]: -0.27

D3H44 Fab heterodimer, H L143E_K145T_Q179E / L T178R (H1L1 of LCCA sets 9683 and 9684)
Change in KD with respect to wild type (-(log(KD design) - log(KD wt))) [1]: -0.28
Kd [2]: 0.3 nM
Kd [5]: 0.3 nM
Change in KD with respect to wild type (-(log(KD design) - log(KD wt))) [6]: -0.28

H1L1 Fab heterodimer of LCCA sets 9757 and 9758 (D3H44 Fab, H1 Q179K, L1 Q124E_Q160E_T178E)
Kd [7]: 0.29 nM
change in median KD compared to wild type, -(log(KD design)-log(KD wt)) [8]: -0.27

H1L1 Fab heterodimer of LCCA sets 9735 and 9737 (D3H44 Fab, H1 L143R, L1 Q124E_V133E)
Kd [7]: 0.2 nM
change in median KD compared to wild type, -(log(KD design)-log(KD wt)) [8]: -0.09

D3H44 H1L1 Fab heterodimer of LCCA Set # 9987 (H1 L143E_K145T; L1 Q124R_T178R)
change in median KD compared to wild type, -(log(KD design)-log(KD wt)) [3]: 0.15
Kd [4]: 0.11 nM

D3H44 H1L1 Fab heterodimer of LCCA Sets # 6054, 9338 and 9339 (H1 L124R, L1 V133G_S176D_T178D)
change in median KD compared to wild type, -(log(KD design)-log(KD wt)) [9]: -0.18 log
Kd [10]: 0.24 nM

D3H44 H1L1 Fab heterodimer of LCCA Set # 9575 (H1 L143D_K145T_Q179E, L1 T178R)
change in median KD compared to wild type, -(log(KD design)-log(KD wt)) [9]: -0.25 log
Kd [10]: 0.28 nM

D3H44 H1L1 Fab heterodimer of LCCA Set # 9122 (H1 L124E_H172T, L1 V133G_S174R_S176R)
change in median KD compared to wild type, -(log(KD design)-log(KD wt)) [9]: 0.1 log
Kd [10]: 0.13 nM

D3H44 H1L1 Fab heterodimer of LCCA Sets # 9743 and 9744 (H1 L143R, L1 Q124E_V133E_S176L)
change in median KD compared to wild type, -(log(KD design)-log(KD wt)) [9]: -0.25 log
Kd [10]: 0.28 nM

D3H44 H1L1 Fab heterodimer of LCCA Set # 9784 (H1 Q179K; L1 Q124E_T178E)
change in median KD compared to wild type, -(log(KD design)-log(KD wt)) [3]: 0.05
Kd [4]: 0.14 nM

D3H44 H1L1 Fab heterodimer of LCCA Set # 9103 (H1 L124A_S186K, L1 Q124E_V133W_T180E)
change in median KD compared to wild type, -(log(KD design)-log(KD wt)) [9]: 0.02 log
Kd [10]: 0.15 nM

H1L1 Fab heterodimer of LCCA sets 9546 and 9547 (D3H44 Fab, H1 L124R_S186R, L1 V133G_S176D_T180E)
Kd [7]: 0.24 nM
change in median KD compared to wild type, -(log(KD design)-log(KD wt)) [8]: -0.18

H1L1 Fab heterodimer of LCCA sets 9755 and 9756 (D3H44 Fab, H1 Q179K, L1 Q124E_L135W_Q160E_T180E)
Kd [7]: 0.28 nM
change in median KD compared to wild type, -(log(KD design)-log(KD wt)) [8]: -0.26

D3H44 H1L1 Fab heterodimer of LCCA Set # 9116 (H1 L124E_A139W, L1 F116A_V133G_L135V_S176R)
change in median KD compared to wild type, -(log(KD design)-log(KD wt)) [9]: -0.02 log
Kd [10]: 0.16 nM

D3H44 Fab heterodimer, H L143E_K145T_Q179E / L Q124K_T178R (H1L1 of LCCA sets 9645 and 9648)
Change in KD with respect to wild type (-(log(KD design) - log(KD wt))) [1]: 0.05
Kd [2]: 0.14 nM
Kd [5]: 0.14 nM
Change in KD with respect to wild type (-(log(KD design) - log(KD wt))) [6]: 0.05

H1L1 Fab heterodimer of LCCA Set # 9779 and 9780 (D3H44 Fab; H1 Q179K, L1 Q124E_S131T_T178Y_T180E)
Change in median values of KD of h1l1 Fab heterodimer compared to wild type (-(log(KD design)-log(KD wt))) [11]: -0.01
Kd [12]: 0.16 nM

H1L1 Fab heterodimer of LCCA sets 9869, 9871, 9874, 9876 and 9879 (D3H44 Fab, H1 S186R, L1 Q124E_Q160E_T180E)
Kd [7]: 0.05 nM
change in median KD compared to wild type, -(log(KD design)-log(KD wt)) [8]: 0.51

H1L1 Fab heterodimer of LCCA Set # 9805 and 9806 (D3H44 Fab; H1 Q179R, L1 Q124E_S131T_T178Y_T180E)
Change in median values of KD of h1l1 Fab heterodimer compared to wild type (-(log(KD design)-log(KD wt))) [11]: 0.07
Kd [12]: 0.13 nM

H1L1 Fab heterodimer of LCCA set 9746 (D3H44 Fab, H1 L45P_K145T_Q179E, L1 P44F_S131K)
Kd [7]: 0.35 nM
change in median KD compared to wild type, -(log(KD design)-log(KD wt)) [8]: -0.35

D3H44 Fab heterodimer, H L143E_K145T_Q179E / L Q124R_T178K (H1L1 of LCCA set 9657)
Change in KD with respect to wild type (-(log(KD design) - log(KD wt))) [1]: -0.08
Kd [2]: 0.19 nM

D3H44 H1L1 Fab heterodimer of LCCA Sets # 9486, 9487, 9488 and 9489 (H1 L124R_S186K, L1 V133G_S176D_T178E_T180E)
change in median KD compared to wild type, -(log(KD design)-log(KD wt)) [9]: -0.17 log
Kd [10]: 0.23 nM

D3H44 Fab heterodimer, H L143E_K145T_Q179D / L Q124R_T178R (H1L1 of LCCA sets 9635 and 9632)
Change in KD with respect to wild type (-(log(KD design) - log(KD wt))) [1]: 0.04
Kd [2]: 0.14 nM
Kd [5]: 0.14 nM
Change in KD with respect to wild type (-(log(KD design) - log(KD wt))) [6]: 0.04

H1L1 Fab heterodimer of LCCA sets 9667, 9671, 9675, 9679 and 9682 (D3H44 Fab, H1 L143E_K145T_Q179E, L1 Q124R_T178R)
Kd [7]: 0.27 nM
change in median KD compared to wild type, -(log(KD design)-log(KD wt)) [8]: -0.23

D3H44 Fab heterodimer, H L143E_K145T_Q179D / L T178R (H1L1 of LCCA set 9641)
Change in KD with respect to wild type (-(log(KD design) - log(KD wt))) [1]: 0.17
Kd [2]: 0.11 nM

D3H44 H1L1 Fab heterodimer of LCCA Sets # 9092, 9091 and 9090 (H1 L124A_L143F_Q179K, L1 Q124E_V133W_S176T_T178E_T180E)
change in median KD compared to wild type, -(log(KD design)-log(KD wt)) [9]: -0.02 log
Kd [10]: 0.16 nM

D3H44 Fab heterodimer, H L143D_K145T_Q179E / L T178R (H1L1 of LCCA sets 9579 and 9575)
Change in KD with respect to wild type (-(log(KD design) - log(KD wt))) [1]: -0.25
Kd [2]: 0.28 nM
Kd [5]: 0.28 nM
Change in KD with respect to wild type (-(log(KD design) - log(KD wt))) [6]: -0.25

H1L1 Fab heterodimer of LCCA Set # 9914 (D3H44 Fab; H1 S188L_V190F, L1 WT)
Change in median values of KD of h1l1 Fab heterodimer compared to wild type (-(log(KD design)-log(KD wt))) [11]: 0.01
Kd [12]: 0.15 nM
